Data published in the supplement of paper PMC7877785.
± gives the uncertainty stated by the source.

Test: self-splicing fitness, log relative to wild type (ln ratio); higher = more splicing; Tetrahymena group I intron in knt gene, E. coli kanamycin selection, DiMSum; sequences stand for … in CUCUCU…GGAGGGAAAAGUUAUCAGGCAUGCACCUGGUAGCUAGUCUUUAAACCAAUAGAUUGCAUCGGUUUAAAAGGCAAGACCGUCAAAUUGCGGGAAAGGGGUCAACAGCCGUUCAGUACCAAGUCUCAGGGGAAACUUUGAGAUGGCCUUGCAAAGGGUAUGGUAAUAAGCUGACGGACAUGGUCCUAACCACGCAGCCAAGUCCUAAGUCAACAGAUCUUCUGUUGAUAUGGAUGCAGUUCACAGACUAAAUGUCGGUCGGGGAAGAUGUAUUCUUCUCAUAAGAUAUAGUCGGACCUCUCCUUAAUGGGAGCUAGCGGAUGAAGUGAUGCAACACUGGAGCCGCUGGGAACUAAUUUGUAUGCGAAAGUAUAUUGAUUAGUUUUGGAGUACUCGUGGUCG
Summary of the method: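 Library with all eight P1ex-region intron nucleotides randomised, intron inside the knt kanamycin-resistance gene on pET-22b(+), in E. coli BL21(DE3). Cells grew overnight at 37°C or 30°C on LB agar with or without 25 μg/mL kanamycin (plus 100 μg/mL carbenicillin, 50 μM IPTG, 0.2% rhamnose), in six replicate transformations. Pooled colonies were amplicon-sequenced on Illumina HiSeq 2500. DiMSum fitness is the error-weighted combination of wild-type-normalised replicate fold changes, kanamycin versus none.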

Sequence | self-splicing fitness (ln) (30 °C) | self-splicing fitness (ln) (37 °C)
GUCAAGCAAUAUUACGCCUG | -3.6 ± 0.25 | -2.6 ± 0.22
UUUAAGCAAUAUUACGAAAU | -2.95 ± 0.24 | -1.04 ± 0.19
UAUUAGCAAUAUUACGACGU | -1.02 ± 0.2 | -0.561 ± 0.17
CACAAGCAAUAUUACGUCUU | -3.88 ± 0.17 | -2.25 ± 0.14
AAGCAGCAAUAUUACGGCAU | -0.221 ± 0.083 | 0.127 ± 0.1
UGGCAGCAAUAUUACGUGUG | -0.896 ± 0.043 | -0.192 ± 0.057
GGCUAGCAAUAUUACGGCAG | -1.12 ± 0.23 | -0.728 ± 0.38
GUCUAGCAAUAUUACGUAGC | -1.45 ± 0.15 | 0.302 ± 0.2
GCCAAGCAAUAUUACGUGAA | -0.726 ± 0.068 | 0.0387 ± 0.09
ACACAGCAAUAUUACGCAGG | -2.43 ± 0.093 | -1.82 ± 0.1
CGUUAGCAAUAUUACGCAGC | -2.48 ± 0.25 | -3.07 ± 0.43
CAGAAGCAAUAUUACGUGGG | -3.34 ± 0.17 | -2.6 ± 0.16
UAGGAGCAAUAUUACGUCCU | -1.63 ± 0.18 | -2.25 ± 0.26
GGCGAGCAAUAUUACGUCAC | -3.01 ± 0.23 | –
AAGGAGCAAUAUUACGGGUU | -2.46 ± 0.23 | -2.16 ± 0.28
CUUCAGCAAUAUUACGGGCG | -0.584 ± 0.076 | -0.302 ± 0.098
UGUCAGCAAUAUUACGUCGG | -1.32 ± 0.078 | -0.266 ± 0.099
UGAGAGCAAUAUUACGGCUC | -3.55 ± 0.36 | –
ACACAGCAAUAUUACGUGUA | -3.54 ± 0.11 | -2.06 ± 0.085

Sequence | self-splicing fitness (ln) (30 °C) | self-splicing fitness (ln) (37 °C)
CACAAGCAAUAUUACGACUA | -1.02 ± 0.089 | -1.21 ± 0.074
AGUGAGCAAUAUUACGAGCG | -0.459 ± 0.1 | -0.0795 ± 0.13
CCAAAGCAAUAUUACGUGUU | -3.49 ± 0.11 | -1.56 ± 0.09
GAUGAGCAAUAUUACGACUA | -1.79 ± 0.12 | -0.933 ± 0.11
AAAGAGCAAUAUUACGGCUA | -1.28 ± 0.11 | -1.13 ± 0.13
GCAUAGCAAUAUUACGCUUG | -3.29 ± 0.21 | -2.64 ± 0.31
CAGAAGCAAUAUUACGACUG | -3.23 ± 0.21 | -2.48 ± 0.19
AAUAAGCAAUAUUACGCAAC | -2.79 ± 0.3 | -0.975 ± 0.2
AUCCAGCAAUAUUACGUUAG | -3.22 ± 0.17 | -3.56 ± 0.35
ACGAAGCAAUAUUACGCUAA | -1.22 ± 0.079 | -0.582 ± 0.083
GACAAGCAAUAUUACGCGUA | -1.12 ± 0.072 | -0.683 ± 0.078
GUUAAGCAAUAUUACGCUAG | -1.64 ± 0.11 | 0.113 ± 0.14
UUAAAGCAAUAUUACGAAAG | -1.66 ± 0.11 | -1.13 ± 0.17
AAUGAGCAAUAUUACGCAGU | -2.51 ± 0.2 | -3.29 ± 0.31
AGCCAGCAAUAUUACGAGCU | -3.38 ± 0.21 | -3 ± 0.35
CCCGAGCAAUAUUACGUCAG | -3.49 ± 0.15 | -2.51 ± 0.17
UAUCAGCAAUAUUACGGGUC | -2.27 ± 0.12 | -1.3 ± 0.12
UACUAGCAAUAUUACGCCCC | -2.19 ± 0.41 | -1.18 ± 0.43
AGCAAGCAAUAUUACGCUUG | -4.25 ± 0.28 | -1.29 ± 0.2
